# From article PMC5006643
# Target: pV2α-Tys, tyrosine-sulfated 18-mer V2 mimetic peptide (aa. 168-185 of HIV-1 BaL gp120) (HIV-1 (isolate BaL))
# Experiment: SPR
Substance,Kd [µM],koff [s⁻¹],kon [M⁻¹ s⁻¹]
gp120 (BaL) pre-complexed with the CD4 mimic CD4-M48U,0.0691,0.00334,48300
recombinant monomeric gp120 (HIV-1 strain BaL) (natural protein),0.0791,0.00189,23900
BG505 SOSIP.664 trimer pre-treated with the CD4 mimic CD4-M48U (from UniProt Q2N0S6 1-860; Q2N0S6 1-860) (complex),0.161,0.005,31000
